The source of these data is patent US10597674B2, “HPPD variants and methods of use” (BASF Agricultural Solutions Seed, US LLC, priority 2015, dated 2020).

Residue numbers refer to the chain shown, from its start. In names and notes the source's numbering stands.

B1: SEQ ID NO: 101: mutant HPPD polypeptide: M264L P268G T270E T315R E335P G336D N337S A340V S344Q I345M (protein)
chain: MADLYENPMGLMGFEFIEFASPTPGTLEPIFEIMGFTKVATHRSKNVHLYRQGEINLILNNEPNSIASYFAAEHGPSVCGMAFRVKDSQKAYNRALELGAQPIHIDTGPMELNLPAIKGIGGAPLYLIDRFGEGSSIYDIDFVYLEGVERNPVGAGLKVIDHLTHNVYRGRMVYWANFYEKLFNFREARYFDIKGEYTGLTSKAMSAPDGMIRIPLNEESSKGAGQIEEFLMQFNGEGIQHVAFLTDDLVKTWDALKKIGMRFLTAPGDEYYEMLEGRLPDHGEPVDQLQARGILLDGSSVEGDKRLLLQIFSERLMGPVFFEFIQRKGDDGFGPDSFKVLFEQMERDQVRRGVLTAD
modifications: mutant HPPD polypeptide
notes: mutant HPPD polypeptide: M264L P268G T270E T315R E335P G336D N337S A340V S344Q I345M
B2: SEQ ID NO: 43: mutant HPPD polypeptide: R213K P268G T270E E335P G336D N337S A340V I345V (protein)
chain: B1 chain with R213K, L264M, R315T, Q344S, M345V
modifications: mutant HPPD polypeptide
notes: mutant HPPD polypeptide: R213K P268G T270E E335P G336D N337S A340V I345V
B3: SEQ ID NO: 105: mutant HPPD polypeptide: R213K M264L P268G T270E E335P G336H N337S A340R S344Q I345M (protein)
chain: B1 chain with R213K, R315T, D336H, V340R
modifications: mutant HPPD polypeptide
notes: mutant HPPD polypeptide: R213K M264L P268G T270E E335P G336H N337S A340R S344Q I345M
B4: SEQ ID NO: 34: mutant HPPD polypeptide: P268G T270E D330H E335P G336D N337S A340R I345K (protein)
chain: B1 chain with L264M, R315T, D330H, V340R, Q344S, M345K
modifications: mutant HPPD polypeptide
notes: mutant HPPD polypeptide: P268G T270E D330H E335P G336D N337S A340R I345K
B5: SEQ ID NO: 56: mutant HPPD polypeptide: P268G T270E E335P G336D N337S K339R A340V I345V (protein)
chain: B1 chain with L264M, R315T, K339R, Q344S, M345V
modifications: mutant HPPD polypeptide
notes: mutant HPPD polypeptide: P268G T270E E335P G336D N337S K339R A340V I345V
B6: SEQ ID NO: 54: mutant HPPD polypeptide: P268G T270E E335P G336D N337S K339A A340V I345V (protein)
chain: B1 chain with L264M, R315T, K339A, Q344S, M345V
modifications: mutant HPPD polypeptide
notes: mutant HPPD polypeptide: P268G T270E E335P G336D N337S K339A A340V I345V
B7: SEQ ID NO: 8: mutant HPPD polypeptide: E335P G336D N337S A340V (protein)
chain: B1 chain with L264M, G268P, E270T, R315T, Q344S, M345I
modifications: mutant HPPD polypeptide
notes: mutant HPPD polypeptide: E335P G336D N337S A340V
B8: SEQ ID NO: 44: mutant HPPD polypeptide: R213L P268G T270E E335P G336D N337S A340V I345V (protein)
chain: B1 chain with R213L, L264M, R315T, Q344S, M345V
modifications: mutant HPPD polypeptide
notes: mutant HPPD polypeptide: R213L P268G T270E E335P G336D N337S A340V I345V
B9: SEQ ID NO: 5: mutant HPPD polypeptide: E335P N337S (protein)
chain: B1 chain with L264M, G268P, E270T, R315T, D336G, V340A, Q344S, M345I
modifications: mutant HPPD polypeptide
notes: mutant HPPD polypeptide: E335P N337S
B10: SEQ ID NO: 42: mutant HPPD polypeptide: A204T P268G T270E E335P G336D N337S A340V I345V (protein)
chain: B1 chain with A204T, L264M, R315T, Q344S, M345V
modifications: mutant HPPD polypeptide
notes: mutant HPPD polypeptide: A204T P268G T270E E335P G336D N337S A340V I345V
B11: SEQ ID NO: 102: mutant HPPD polypeptide: M264L P268G (Table 2: R) T270E T315R E335P G336H N337S A340V S344Q I345M (protein)
chain: B1 chain with G268R, D336H
modifications: mutant HPPD polypeptide
B12: SEQ ID NO: 24: mutant HPPD polypeptide: E335P G336H N337S A340V I345V (protein)
chain: B1 chain with L264M, G268P, E270T, R315T, D336H, Q344S, M345V
modifications: mutant HPPD polypeptide
notes: mutant HPPD polypeptide: E335P G336H N337S A340V I345V

The first test has as its system transgenic soybean T0 events. Nature of the test: Additional greenhouse trials of T0 soybean events, leaf damage score 0-100 as percentiles. Format: in vivo. The settings on record: Cmpd. 1 300 g AI/ha, five days; 75th minus 25th percentile. From the text: In additional greenhouse trials, 21 to 94 independent T0 soybean events per construct containing an exemplary mutant HPPD polypeptide were sprayed with the HPPD inhibitor herbicide Cmpd. […] Five days after the application, the leaf damaged area due to the HPPD inhibitor herbicide is scored in a scale from 0 (no damage) to 100 (complete bleaching). Under those conditions, the wild-type plants were completely bleached and their damage scores were in the 95-100 range.
Table 9 presents the distribution of the HPPD inhibitor herbicide damage score data as percentile for exemplary mutant HPPD inhibitor herbicide tolerant polypeptides (SEQ ID NOs). The percentiles normalize ranks of the damage score from an individual plant in a population. […] The median is the 50th percentile. Half the values had higher damage scores; half had lower damage scores. […] The difference between the 75th and 25th percentile is called the interquartile range and a marker to quantify scattering in the population. All constructs had only one single cassette insertion in the soybean genome.
In Table 9, the constructs were ranked based on injury scores according to the 75th percentile, from smallest to highest score. All exemplary HPPD polypeptide variants are better in all percentile analyses than the prior art mutant HPPD polypeptide (WO2014/043435) corresponding to SEQ ID NO:2 in this invention. The scoring of the prior art mutant HPPD polypeptide (WO2014/043435) corresponding to SEQ ID NO:2 in this invention is listed in the bottom row of Table 9.
Regarding B1, the “leaf damage score, Interquartile range” value is 10.0.
Still for that read-out and setting: with B2 the figure was 10.0.
On the same count and under the same terms, with B3 the figure was 10.0.
For the molecule B4, the “leaf damage score, Interquartile range” value amounted to 10.0.
Same read-out and setting: the result for B5 reads 10.0; that for B6, 10.0.
The same measure, in the same setting: the result for B7 reads 6.3.
Regarding B8, the “leaf damage score, Interquartile range” value was found to be 11.3.
Same read-out and setting: with B9 the figure was 10.0; with B10, 10.0; with B11, 12.0.
Same read-out and setting: with B12 the figure was 10.0.

The same test, now with this note: Cmpd. 1 300 g AI/ha, five days; scale 0 (no damage) to 100 (complete bleaching).
For the molecule B1, the “leaf damage score, 25th percentile” value was 5.0.
Same read-out and setting: with B2 the figure was 10.0; with B3, 5.0; with B4, 10.0.
The same measure, in the same setting: with B5 the figure was 10.0.
The same measure, in the same setting: the result for B6 reads 10.0; that for B7, 10.0.
Take B8: the “leaf damage score, 25th percentile” value is reported as 10.0.
For B9, the “leaf damage score, 25th percentile” value is listed as 10.0.
The same measure, in the same setting: the result for B10 reads 10.0; that for B11, 8.0; that for B12, 10.0.

Staying with this test, now noted: Cmpd. 1 300 g AI/ha, five days; scale 0-100.
Take B1: the “leaf damage score, 75th percentile” value worked out at 15.0; the “leaf damage score, 90th percentile” value came to 49.0; the “leaf damage score, Median” value came out at 10.0.
On the same counts, the results for B2 are 20.0, 67.0 and 15.0.
Take B3: the “leaf damage score, 75th percentile” value was 15.0; the “leaf damage score, 90th percentile” value was determined as 70.0; the “leaf damage score, Median” value worked out at 10.0.
Taken in the same sequence, the figures for B4 were 20.0, 70.0 and 15.0.
Taken in the same sequence, the figures for B5 were 20.0, 65.0 and 15.0.
Taken in the same sequence, the figures for B6 were 20.0, 62.5 and 10.0.
Regarding B7, the “leaf damage score, 75th percentile” value worked out at 16.3; the “leaf damage score, 90th percentile” value turned out to be 38.5; the “leaf damage score, Median” value stood at 10.0.
In the case of B8, the “leaf damage score, 75th percentile” value is on record as 21.3; the “leaf damage score, 90th percentile” value worked out at 70.0; the “leaf damage score, Median” value was determined as 15.0.
Turning to B9, the “leaf damage score, 75th percentile” value was 20.0; the “leaf damage score, 90th percentile” value was found to be 72.0; the “leaf damage score, Median” value was found to be 15.0.
Consider B10, for which the “leaf damage score, 75th percentile” value was found to be 20.0; the “leaf damage score, 90th percentile” value is reported as 75.0; the “leaf damage score, Median” value is given as 15.0.
Taken in the same sequence, the figures for B11 were 20.0, 45.0 and 10.0.
Taken in the same sequence, the figures for B12 were 20.0, 35.0 and 10.0.
